Test [1] has as its target T1, Fc-fusion cyno BCMA (in-house; Cat# BCMW6.001) (cyno, UniProt Q02223 1-54 (human entry)).
T1 construct: also called Fc-BCMA Cy; cyno Fc-BCMA; not shown: Fc part
Briefly: SPR, Fc-BCMA, two-state model, Final KD; Final complex KD, two-state model.

Test [2] deals with T2, Recombinant mouse BCMA-Fc fusion protein (R&D Systems catalog #593-BC-050) (mouse, UniProt O88472 1-49).
T2 construct: also called mBCMA-Fc; Fc-fusion mouse BCMA; not shown: Fc part of the bought fusion protein
T2 chain: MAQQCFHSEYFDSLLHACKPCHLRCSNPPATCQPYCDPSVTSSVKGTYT
Briefly: SPR (Biacore T200), biotinylated Fc-BCMA Mouse on a streptavidin chip, BCMB72 as analyte, two-state binding model, Final Complex; column RANGE prints 62.0 - 82.9. The protocol: (§1) The binding affinities of anti-BCMA×CD3 bispecific antibody (BCMB72) with Fc-fusion BCMA proteins (human, cyno and mouse) were measured by Surface Plasmon Resonance (SPR) using a Biacore T200 system (GE Healthcare, NJ).
(§2) No protein was immobilized on flow-cell 1 and was used as a reference surface. Binding kinetics experiments were performed at 25° C. in running buffer (PBS pH 7.4, 0.005% P20, 3 mM EDTA). BCMB72 was prepared in running buffer starting from 100 nM to 0.16 nM at 5-fold dilutions. These solutions were injected for 5 min (association phase) at 50 μL/min and the dissociation was monitored for 15 min by flowing running buffer. The chip surface was regenerated by short injections of glycine (pH 1.5) and running buffer at 100 μL/min. Binding kinetics analysis of BCMB72 interactions with Fc-BCMA was performed by double referencing of the data by subtracting the curves generated by buffer injection from the reference-subtracted curves for analyte injections. Global kinetics fitting of the sensorgrams was performed using a Two-State binding Model using Biacore T200 Evaluation Software (GE Healthcare, NJ). The binding affinity results from the Two-State binding model for different BCMA species are reported as First Complex (KD1) and Final Complex (KD) (FIG. 5).
In general terms: In SPR one partner is held on a chip, and binding of the other changes the refractive index at the surface.

Test [3] has as its target T1, Fc-fusion cyno BCMA (in-house; Cat# …). Briefly: SPR, Fc-BCMA, two-state model, step 1 (koff1); first step (koff1).
The target is the same in test [4]. Briefly: SPR, Fc-BCMA, two-state model, step 2.
The target is the same in test [5]. As to the kind of experiment: SPR (Biacore T200), biotinylated Fc-BCMA Cyno on a streptavidin chip, BCMB72 as analyte, two-state binding model, Final Complex; column RANGE prints 5.36 - 7.27. The protocol:
as §1, §2

Test [6] deals with T3, Soluble human BCMA ECD (AB Biosciences, Catalog no. P011Xp) (human, UniProt Q02223 1-54).
T3 sequence: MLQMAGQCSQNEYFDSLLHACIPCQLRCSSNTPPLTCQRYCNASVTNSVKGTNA
Briefly: cell-based or functional assay.

Test [7] addresses T1, Fc-fusion cyno BCMA (in-house; Cat# …). As to the kind of experiment: SPR, Fc-BCMA, two-state model, first complex.
For test [8] the target is unchanged. Briefly: SPR (Biacore T200), biotinylated Fc-BCMA on streptavidin chip. The protocol:
as §1, §2

The target of test [9] is T2, Recombinant mouse BCMA-Fc fusion …. The description is as above. On the procedure: as §1, §2
The target of test [10] is T1, Fc-fusion cyno BCMA (in-house; Cat# …). As to the kind of experiment: SPR, Fc-BCMA, two-state model, step 1 (kon1); first step (kon1).
Test [11] addresses T4, Recombinant human BCMA-Fc fusion protein (R&D Systems catalog #193-BC-050) (human, UniProt Q02223 1-54).
T4 construct: also called hBCMA-Fc; Fc-BCMA Hu; not shown: Fc part of the bought fusion protein
T4 sequence: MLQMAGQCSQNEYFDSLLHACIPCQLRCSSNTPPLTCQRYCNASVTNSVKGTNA
Briefly: SPR, Fc-BCMA, two-state model, Final KD; Final complex KD, two-state model.

The target of test [12] is T4, Recombinant human BCMA-Fc fusion …. As to the kind of experiment: SPR, Fc-BCMA, two-state model, step 1 (koff1); first step (koff1).
Test [13] has the same target. Briefly: SPR, Fc-BCMA, two-state model, step 2.
Test [14] concerns the target T1, Fc-fusion cyno BCMA (in-house; Cat# …). Briefly: SPR, cyno Fc-BCMA.
The target of test [15] is T4, Recombinant human BCMA-Fc fusion …. As to the kind of experiment: SPR, Fc-BCMA, two-state model, first complex.
Test [16] has the same target. As to the kind of experiment: SPR, Fc-BCMA, two-state model, step 1 (kon1); first step (kon1).
Test [17] addresses T5, cyno BCMA on HEK cells (cyno, UniProt Q02223 1-184 (human entry)).
T5 construct: also called HEK-expressing cyno BCMA
As to the kind of experiment: flow cytometry, HEK cells expressing cyno BCMA. Background: In flow cytometry, cells or beads pass a laser one at a time.

The results in this text go back to patent US20170051068A1 (Janssen / Centocor, published 2017).

T5 sequence (Q02223 other isoform, or with tags, fused parts or gaps): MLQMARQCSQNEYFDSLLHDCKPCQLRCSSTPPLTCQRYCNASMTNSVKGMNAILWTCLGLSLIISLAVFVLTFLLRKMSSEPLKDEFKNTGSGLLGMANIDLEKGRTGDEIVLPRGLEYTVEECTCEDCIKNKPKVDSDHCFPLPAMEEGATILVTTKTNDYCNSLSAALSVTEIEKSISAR

B1: BCMB72 (BCMA×CD3 bispecific antibody, BCMB69 × CD3B219) (bispecific antibody, human IgG4 S228P, lambda, F234A L235A)
heavy 1: EVQLVESGGGLVQPGGSLRLSCAASGFTFNTYAMNWVRQAPGKGLEWVARIRSKYNNYATYYAASVKGRFTISRDDSKNSLYLQMNSLKTEDTAVYYCARHGNFGNSYVSWFAYWGQGTLVTVSSASTKGPSVFPLAPCSRSTSESTAALGCLVKDYFPEPVTVSWNSGALTSGVHTFPAVLQSSGLYSLSSVVTVPSSSLGTKTYTCNVDHKPSNTKVDKRVESKYGPPCPPCPAPEAAGGPSVFLFPPKPKDTLMISRTPEVTCVVVDVSQEDPEVQFNWYVDGVEVHNAKTKPREEQFNSTYRVVSVLTVLHQDWLNGKEYKCKVSNKGLPSSIEKTISKAKGQPREPQVYTLPPSQEEMTKNQVSLTCLVKGFYPSDIAVEWESNGQPENNYKTTPPVLDSDGSFLLYSKLTVDKSRWQEGNVFSCSVMHEALHNHYTQKSLSLSLGK
light 1: QTVVTQEPSLTVSPGGTVTLTCRSSTGAVTTSNYANWVQQKPGQAPRGLIGGTNKRAPGTPARFSGSLLGGKAALTLSGVQPEDEAEYYCALWYSNLWVFGGGTKLTVLGQPKAAPSVTLFPPSSEELQANKATLVCLISDFYPGAVTVAWKADSSPVKAGVETTTPSKQSNNKYAASSYLSLTPEQWKSHRSYSCQVTHEGSTVEKTVAPTECS
heavy 2: not shown
light 2: SYVLTQPPSVSVAPGQTARITCGGNNIGSKSVHWYQQPPGQAPVVVVYDDSDRPSGIPERFSGSNSGNTATLTISRVEAGDEAVYYCQVWDSSSDHVVFGGGTKLTVLGQPKAAPSVTLFPPSSEELQANKATLVCLISDFYPGAVTVAWKGDSSPVKAGVETTTPSKQSNNKYAASSYLSLTPEQWKSHRSYSCQVTHEGSTVEKTVAPTECS
notes: IgG4 made by Fab arm exchange; first heavy/light pair is the CD3B219 arm, second pair the BCMB69 arm; also called B69 × B219; BCMB72.004
As usually defined, the Kd is the equilibrium constant for the complex coming apart. Broadly, the koff is the rate constant with which the complex falls apart. Usually kon stands for a measure of how fast the partners come together. For the molecule B1, the Kd was 1.65 nM in test [1], 72.4 nM in [2] and 6.5 nM in test [5]. Further, the dissociation rate constant (koff) in test [3] was determined as 0.00483 s⁻¹. In [4], this molecule returned a koff2 of 0.000785 s⁻¹. Further, the kon2 in [4] turned out to be 0.00106 s⁻¹. In addition, in [6], the “Change of EC50 of cytotoxicity on H929 cells in the presence of soluble BCMA ECD” value came out at 2 fold. This molecule also gave a KD1 in [7] of 3.87 nM. For the same molecule, the “fold of average KD compared to human BCMA” value in [8] is around 36 fold; in [9] it was around 402 fold. This molecule registered a kon in test [10] of 1.26e+06 M⁻¹ s⁻¹.

B2: BC3B9 (BCMA×CD3 bispecific antibody, BCMB128 × CD3B219) (bispecific antibody, human IgG4 S228P, lambda, F234A L235A)
heavy 1: EVQLVESGGGLVQPGGSLRLSCAASGFTFNTYAMNWVRQAPGKGLEWVARIRSKYNNYATYYAASVKGRFTISRDDSKNSLYLQMNSLKTEDTAVYYCARHGNFGNSYVSWFAYWGQGTLVTVSSASTKGPSVFPLAPCSRSTSESTAALGCLVKDYFPEPVTVSWNSGALTSGVHTFPAVLQSSGLYSLSSVVTVPSSSLGTKTYTCNVDHKPSNTKVDKRVESKYGPPCPPCPAPEAAGGPSVFLFPPKPKDTLMISRTPEVTCVVVDVSQEDPEVQFNWYVDGVEVHNAKTKPREEQFNSTYRVVSVLTVLHQDWLNGKEYKCKVSNKGLPSSIEKTISKAKGQPREPQVYTLPPSQEEMTKNQVSLTCLVKGFYPSDIAVEWESNGQPENNYKTTPPVLDSDGSFLLYSKLTVDKSRWQEGNVFSCSVMHEALHNHYTQKSLSLSLGK
light 1: QTVVTQEPSLTVSPGGTVTLTCRSSTGAVTTSNYANWVQQKPGQAPRGLIGGTNKRAPGTPARFSGSLLGGKAALTLSGVQPEDEAEYYCALWYSNLWVFGGGTKLTVLGQPKAAPSVTLFPPSSEELQANKATLVCLISDFYPGAVTVAWKADSSPVKAGVETTTPSKQSNNKYAASSYLSLTPEQWKSHRSYSCQVTHEGSTVEKTVAPTECS
heavy 2: not shown
light 2: SYVLTQPPSVSVAPGQTARITCGGNNIGSKSVHWYQQPPGQAPVVVVYDDSDRPSGIPERFSGSNSGNTATLTISRVEAGDEAVYYCQVWDSSSDHVVFGGGTKLTVLGQPKAAPSVTLFPPSSEELQANKATLVCLISDFYPGAVTVAWKADSSPVKAGVETTTPSKQSNNKYAASSYLSLTPEQWKSHRSYSCQVTHEGSTVEKTVAPTECS
notes: IgG4 made by Fab arm exchange; also called B128 × B219
For the molecule B2, the Kd in [11] is 0.05 nM; in [1], 0.37 nM. The off-rate constant (koff) in test [12] came to 0.00205 s⁻¹; in test [3], 0.00423 s⁻¹. Further, the koff2 in test [13] stood at 0.000364 s⁻¹; in test [4], 0.000376 s⁻¹. The kon2 in test [13] is 0.00506 s⁻¹; in test [4], 0.0016 s⁻¹. Also, the “fold tighter affinity than BCMB72” value in [14] was 3 fold. The KD1 was 0.79 nM in test [15] and 1.94 nM in [7]. Also, the on-rate (kon) in test [16] is 2.58e+06 M⁻¹ s⁻¹; in [10], 2.18e+06 M⁻¹ s⁻¹.

B3: BCMB69 (antibody, V domains shown)
VH: QLQLQESGPGLVKPSETLSLTCTVSGGSISSGSYFWGWIRQPPGKGLEWIGSIYYSGITYYNPSLKSRVTISVDTSKNQFSLKLSSVTAADTAVYYCARHDGAVAGLFDYWGQGTLVTVSS
VL: SYVLTQPPSVSVAPGQTARITCGGNNIGSKSVHWYQQPPGQAPVVVVYDDSDRPSGIPERFSGSNSGNTATLTISRVEAGDEAVYYCQVWDSSSDHVVFGGGTKLTVLG
notes: also called BCBM69; antibody derived from the M2 hybridoma
As for B3, the binding result in test [17] is reported as “binds”.
